These results are taken from US6159731, “Daxx, a Fas-binding protein that activates JNK and apoptosis” (Massachusetts Institute of Technology, dated 2000).

Test [1] addresses full length murine Fas expressed in cells (murine) (UniProt P25446).
Test [2] has as its target glutathione S-transferase (GST) (Schistosoma japonicum (Blood fluke), UniProt P08515 = GST). The test is described as follows: GST pull-down of in vitro translated 35S-Daxx. An excerpt: In the two-hybrid system, the Daxx C-terminal region interacted strongly with Fas, confirming that Daxx is the functional homolog of clone A21 (FIG. 1B). We then tested the binding of full length murine Daxx protein in vitro and in mammalian cells. In vitro translated, ^35S-labeled Daxx bound to immobilized glutathione S-transferase (GST) fusion proteins of Fas death domain and TNFR1 intracellular tail but not to immobilized GST or GST-CD40 intracellular tail or GST-Fas lpr^cg death domain (FIG. 3A). Positions of MW standards (in kDa) are shown at left. Coomassie stained GST fusion proteins from the same gel were aligned to show protein levels. Daxx migrated with an apparent molecular weight of approximately 120 kDa on SDS-PAGE; this slower than expected migration may reflect the high content of acidic residues in Daxx. In the GST pull-down assay, ^35S-Daxx bound to GST-FasDD but only very weakly to GST-TNFR1. This discrepancy with the two-hybrid result (FIG. 1) may be due to the nonlinear readout of the two-hybrid system. Deletion of 162 amino acids from the C-terminus of Daxx abrogated binding to GST-FasDD while the C-terminal 112 amino acids (DaxxC) was sufficient to bind GST-FasDD (FIG. 3B), consistent with the two-hybrid results. Daxx(-162) was missing C-terminal 162 aa of Daxx; DaxxC corresponded to aa 628-739. […]

Consider “HA-Daxx (hemagglutinin-tagged full length murine Daxx)”, for which the specific apoptosis of L929 cells stably overexpressing Daxx (L/Daxx) after Fas transfection in test [1] is 3 fold.

B1: in vitro translated 35S-labeled full length murine Daxx (other)
chain: MATDDSIIVLDDDDEDEAAAQPGPSNLPPNPASTGPGPGLSQQATGLSEPRVDGGSSNSGSRKCYKLDNEKLFEEFLELCKTETSDHPEVVPFLHKLQQRAQSVFLASAEFCNILSRVLARSRKRPAKIYVYINELCTVLKAHSIKKKLNLAPAASTTSEASGPNPPTEPPSDLTNTENTASEASRTRGSRRQIQRLEQLLALYVAEIRRLQEKELDLSELDDPDSSYLQEARLKRKLIRLFGRLCELKDCSSLTGRVIEQRIPYRGTRYPEVNRRIERLINKPGLDTFPDYGDVLRAVEKAATRHSLGLPRQQLQLLAQDAFRDVGVRLQERRHLDLIYNFGCHLTDDYRPGVDPALSDPTLARRLRENRTLAMNRLDEVISKYAMMQDKTEEGERQKRRARLLGTAPQPSDPPQASSESGEGPSGMASQECPTTSKAETDDDDDDDDDDDEDNEESEEEEEEEEEEKEATEDEDEDLEQLQEDQGGDEEEEGGDNEGNESPTSPSDFFHRRNSEPAEGLRTPEGQQKRGLTETPASPPGASLDPPSTDAESSGEQLLEPLLGDESPVSQLAELEMEALPEERDISSPRKKSEDSLPTILENGAAVVTSTSVNGRVSSHTWRDASPPSKRFRKEKKQLGSGLLGNSYIKEPMAQQDSGQNTSVQPMPSPPLASVASVADSSTRVDSPSHELVTSSLCSPSPSLLLQTPQAQSLRQCIYKTSVATQCDPEEIIVLSDSD
modifications: 35S-labeled (in vitro translated)
Consider B1, for which the binding result in test [2] is reported as “no binding”.
